*1 amine or outer side, *2 acyl side, *3 side chain or, on linkers, in order; H or OH if unused. Primed or numbered codes have the meaning given here. [ ]: non-standard residue; d: D form. aMeNle = (S)-2-amino-2-methylhexanoic acid (alpha-methyl-norleucine), CCCC[C@](C)(N[*:1])C(=O)[*:2]; Phe(4-(trans-4-COOH-cHex)) = N[C@@H](Cc1ccc([C@H]2CC[C@H](C(=O)O)CC2)cc1)C(=O)O; Phe(4-(4-Ac-piperazinyl)) = CC(=O)N1CCN(c2ccc(C[C@H](N)C(=O)O)cc2)CC1; Pro(trans-4-NH2) = O=C([C@@H]1C[C@@H](N[*:3])CN1[*:1])[*:2]; Bip(4'-COOH) = N[C@@H](Cc1ccc(-c2ccc(C(=O)O)cc2)cc1)C(=O)O; 1Nal(3S-Me) = C[C@@H](c1cccc2ccccc12)[C@H](N)C(=O)O; Ala(indolin-1-yl) = N[C@@H](CN1CCc2ccccc21)C(=O)O; Phe(4-COOH) = N[C@@H](Cc1ccc(C(=O)O)cc1)C(=O)O; αMeNle = CCCC[C@](C)(N[*:1])C(=O)[*:2]; hTyr = N[C@@H](CCc1ccc(O)cc1)C(=O)O; hCha = N[C@@H](CCC1CCCCC1)C(=O)O; 4Pal = N[C@@H](Cc1ccncc1)C(=O)O; Cha = N[C@@H](CC1CCCCC1)C(=O)O; dαMeDab′ = not defined here; dDab = NCC[C@@H](N)C(=O)O; Nle = CCCC[C@H](N)C(=O)O; dNMeA = CN[C@H](C)C(=O)O; Dab = NCC[C@H](N)C(=O)O
B1: SEQ ID NO: 196 (Example No. 196) (peptide)
peptide: cyclo([Phe(4-(trans-4-COOH-cHex))]W[Phe(4-COOH)]G[Pro(trans-4-NH2)][1Nal(3S-Me)]D[dNMeA]G[Bip(4'-COOH)][4Pal]G[dDab][hCha])
SMILES: C[C@@H]1C(=O)NCC(=O)N[C@@H](Cc2ccc(-c3ccc(C(=O)O)cc3)cc2)C(=O)N[C@@H](Cc2ccncc2)C(=O)NCC(=O)N[C@H](CCN)C(=O)N[C@@H](CCC2CCCCC2)C(=O)N[C@@H](Cc2ccc([C@H]3CC[C@H](C(=O)O)CC3)cc2)C(=O)N[C@@H](Cc2c[nH]c3ccccc23)C(=O)N[C@@H](Cc2ccc(C(=O)O)cc2)C(=O)NCC(=O)N2C[C@H](N)C[C@H]2C(=O)N[C@@H]([C@@H](C)c2cccc3ccccc23)C(=O)N[C@@H](CC(=O)O)C(=O)N1C
B2: SEQ ID NO: 201 (Example No. 201) (peptide)
peptide: cyclo([Phe(4-(4-Ac-piperazinyl))]W[Phe(4-COOH)]G[Pro(trans-4-NH2)][1Nal(3S-Me)]D[dNMeA]G[Bip(4'-COOH)][4Pal]G[dDab][hCha])
SMILES: CC(=O)N1CCN(c2ccc(C[C@@H]3NC(=O)[C@H](CCC4CCCCC4)NC(=O)[C@@H](CCN)NC(=O)CNC(=O)[C@H](Cc4ccncc4)NC(=O)[C@H](Cc4ccc(-c5ccc(C(=O)O)cc5)cc4)NC(=O)CNC(=O)[C@@H](C)N(C)C(=O)[C@H](CC(=O)O)NC(=O)[C@H]([C@@H](C)c4cccc5ccccc45)NC(=O)[C@@H]4C[C@@H](N)CN4C(=O)CNC(=O)[C@H](Cc4ccc(C(=O)O)cc4)NC(=O)[C@H](Cc4c[nH]c5ccccc45)NC3=O)cc2)CC1
B3: SEQ ID NO: 197 (Example No. 197) (peptide)
peptide: cyclo([Phe(4-(trans-4-COOH-cHex))]W[Phe(4-COOH)]G[Pro(trans-4-NH2)][1Nal(3S-Me)]D[dNMeA]G[Bip(4'-COOH)][4Pal]G[dDab][Nle])
SMILES: CCCC[C@@H]1NC(=O)[C@@H](CCN)NC(=O)CNC(=O)[C@H](Cc2ccncc2)NC(=O)[C@H](Cc2ccc(-c3ccc(C(=O)O)cc3)cc2)NC(=O)CNC(=O)[C@@H](C)N(C)C(=O)[C@H](CC(=O)O)NC(=O)[C@H]([C@@H](C)c2cccc3ccccc23)NC(=O)[C@@H]2C[C@@H](N)CN2C(=O)CNC(=O)[C@H](Cc2ccc(C(=O)O)cc2)NC(=O)[C@H](Cc2c[nH]c3ccccc23)NC(=O)[C@H](Cc2ccc([C@H]3CC[C@H](C(=O)O)CC3)cc2)NC1=O
B4: SEQ ID NO: 198 (Example No. 198) (peptide)
peptide: cyclo([Phe(4-(4-Ac-piperazinyl))]W[Phe(4-COOH)]G[Pro(trans-4-NH2)][1Nal(3S-Me)]D[dNMeA]G[Bip(4'-COOH)][Ala(indolin-1-yl)]G[dDab][hTyr])
SMILES: CC(=O)N1CCN(c2ccc(C[C@@H]3NC(=O)[C@H](CCc4ccc(O)cc4)NC(=O)[C@@H](CCN)NC(=O)CNC(=O)[C@H](CN4CCc5ccccc54)NC(=O)[C@H](Cc4ccc(-c5ccc(C(=O)O)cc5)cc4)NC(=O)CNC(=O)[C@@H](C)N(C)C(=O)[C@H](CC(=O)O)NC(=O)[C@H]([C@@H](C)c4cccc5ccccc45)NC(=O)[C@@H]4C[C@@H](N)CN4C(=O)CNC(=O)[C@H](Cc4ccc(C(=O)O)cc4)NC(=O)[C@H](Cc4c[nH]c5ccccc45)NC3=O)cc2)CC1
B5: SEQ ID NO: 202 (Example No. 202) (peptide)
peptide: cyclo([Phe(4-(4-Ac-piperazinyl))]W[Phe(4-COOH)]G[Pro(trans-4-NH2)][1Nal(3S-Me)]D[dNMeA]G[Bip(4'-COOH)][Cha]G[dDab][hTyr])
SMILES: CC(=O)N1CCN(c2ccc(C[C@@H]3NC(=O)[C@H](CCc4ccc(O)cc4)NC(=O)[C@@H](CCN)NC(=O)CNC(=O)[C@H](CC4CCCCC4)NC(=O)[C@H](Cc4ccc(-c5ccc(C(=O)O)cc5)cc4)NC(=O)CNC(=O)[C@@H](C)N(C)C(=O)[C@H](CC(=O)O)NC(=O)[C@H]([C@@H](C)c4cccc5ccccc45)NC(=O)[C@@H]4C[C@@H](N)CN4C(=O)CNC(=O)[C@H](Cc4ccc(C(=O)O)cc4)NC(=O)[C@H](Cc4c[nH]c5ccccc45)NC3=O)cc2)CC1
B6: SEQ ID NO: 195 (Example No. 195) (peptide)
peptide: cyclo([Phe(4-(trans-4-COOH-cHex))]W[Phe(4-COOH)]G[Pro(trans-4-NH2)][1Nal(3S-Me)]D[dNMeA]G[Bip(4'-COOH)][4Pal]G[dDab][αMeNle])
SMILES: CCCC[C@]1(C)NC(=O)[C@@H](CCN)NC(=O)CNC(=O)[C@H](Cc2ccncc2)NC(=O)[C@H](Cc2ccc(-c3ccc(C(=O)O)cc3)cc2)NC(=O)CNC(=O)[C@@H](C)N(C)C(=O)[C@H](CC(=O)O)NC(=O)[C@H]([C@@H](C)c2cccc3ccccc23)NC(=O)[C@@H]2C[C@@H](N)CN2C(=O)CNC(=O)[C@H](Cc2ccc(C(=O)O)cc2)NC(=O)[C@H](Cc2c[nH]c3ccccc23)NC(=O)[C@H](Cc2ccc([C@H]3CC[C@H](C(=O)O)CC3)cc2)NC1=O
B7: SEQ ID NO: 203 (Example No. 203) (peptide)
peptide: cyclo([Phe(4-(4-Ac-piperazinyl))]W[Phe(4-COOH)]G[Pro(trans-4-NH2)][1Nal(3S-Me)]D[dNMeA]G[Bip(4'-COOH)][Dab]L[dA][hCha])
SMILES: CC(=O)N1CCN(c2ccc(C[C@@H]3NC(=O)[C@H](CCC4CCCCC4)NC(=O)[C@@H](C)NC(=O)[C@H](CC(C)C)NC(=O)[C@H](CCN)NC(=O)[C@H](Cc4ccc(-c5ccc(C(=O)O)cc5)cc4)NC(=O)CNC(=O)[C@@H](C)N(C)C(=O)[C@H](CC(=O)O)NC(=O)[C@H]([C@@H](C)c4cccc5ccccc45)NC(=O)[C@@H]4C[C@@H](N)CN4C(=O)CNC(=O)[C@H](Cc4ccc(C(=O)O)cc4)NC(=O)[C@H](Cc4c[nH]c5ccccc45)NC3=O)cc2)CC1
B8: SEQ ID NO: 200 (Example No. 200) (peptide)
peptide: cyclo([Phe(4-(4-Ac-piperazinyl))]W[Phe(4-COOH)]G[Pro(trans-4-NH2)][1Nal(3S-Me)]D[dNMeA]G[Bip(4'-COOH)][4Pal]G[dDab][aMeNle])
SMILES: CCCC[C@]1(C)NC(=O)[C@@H](CCN)NC(=O)CNC(=O)[C@H](Cc2ccncc2)NC(=O)[C@H](Cc2ccc(-c3ccc(C(=O)O)cc3)cc2)NC(=O)CNC(=O)[C@@H](C)N(C)C(=O)[C@H](CC(=O)O)NC(=O)[C@H]([C@@H](C)c2cccc3ccccc23)NC(=O)[C@@H]2C[C@@H](N)CN2C(=O)CNC(=O)[C@H](Cc2ccc(C(=O)O)cc2)NC(=O)[C@H](Cc2c[nH]c3ccccc23)NC(=O)[C@H](Cc2ccc(N3CCN(C(C)=O)CC3)cc2)NC1=O

What follows are binders tested against Recombinant human IL-1β (BioLegend 579404) (human, UniProt P01584 117-269) (assay: cell-based or functional assay).
For B1, the “MRC5 IC50” value was 0.03 nM.
With B2 the “MRC5 IC50” value was 0.03 nM.
With B3 the “MRC5 IC50” value was 0.024 nM.
In the case of B4, the “MRC5 IC50” value is reported as 0.021 nM.
B5 was tested, and the “MRC5 IC50” value was 0.029 nM.
In the case of B6, the “MRC5 IC50” value is reported as 0.022 nM.
With B7 the “MRC5 IC50” value was 0.012 nM.
In the case of cyclo([Phe(4-(4-Ac-piperazinyl))]W[Phe(4-COOH)]G[Pro(trans-4-NH2)][1Nal(3S-Me)]D[dNMeA]G[Bip(4'-COOH)][4Pal]G[dαMeDab′][hCha]) [SEQ ID NO: 199 (Example No. 199)], the “MRC5 IC50” value is reported as 0.024 nM.
In the case of B8, the “MRC5 IC50” value is reported as 0.034 nM.
